Reference: patent US20220380459A1 (DRAGONFLY THERAPEUTICS, published 2022)
Numbering of substitutions follows the chain as printed.

B1: ADI-10161 Fab (Fab, V domains shown)
VH: EVQLVESGGGLVQPGGSLRLSCAASGFTFSSYWMSWVRQAPGKGLEWVANINQDGSEKYYVDSVKGRFTISRDNAKNSLYLQMNSLRAEDTAVYYCAREGGDSWYHAFDIWGQGTMVTVSS
VL: DIQMTQSPSSVSASVGDRVTITCRASQGISSWLAWYQQKPGKAPKLLIYAASNLQSGVPSRFSGSGSGTDFTLTISSLQPEDFATYYCQQKLSLPLTFGGGTKVEIK
notes: Fab fragment; also called Ab16
B2: ADI-11839 Fab (Fab, V domains shown)
VH: QVQLVQSGAEVKKPGASVKVSCKASGYTFSNYYMHWVRQAPGQGLEWMGWINPFSGGTRYAQKFQGRVTMTRDTSTSTVYMELSSLRSEDTAVYYCARDVGSSAYYYMDVWGKGTTVTVSS
VL: B1 VL with R24E, Q27K, N53D, K91A, L92F, S93L, L94F, L96P
notes: Fab fragment; also called Ab28
B3: ADI-10164 Fab (Fab, V domains shown)
VH: QVQLQESGPGLVKPSETLSLTCAVSGYSISSGYYWGWIRQPPGKGLEWIGSIYHSGSTNYNPSLKSRVTISVDTSKNQFSLKLSSVTAADTAVYYCARLPPWFGFSYFDLWGRGTLVTVSS
VL: EIVLTQSPATLSLSPGERATLSCRASQSVSSYLAWYQQKPGQAPRLLIYDASNRATGIPARFSGSGSGTDFTLTISSLEPEDFAVYYCQQVDNYPPTFGGGTKVEIK
notes: Fab fragment; also called Ab18
B4: ADI-11826 Fab (Fab, V domains shown)
VH: EVQLVESGGGLVQPGGSLRLSCAASGFTFPGYWMSWVRQAPGKGLEWVANINQDGSEVYYVDSVKGRFTISRDNAKNSLYLQMNSLRAEDTAVYYCAREANYYGNVGDDYWGQGTLVTVSS
VL: DIQMTQSPSSLSASVGDRVTITCRASQSIYNYLNWYQQKPGKAPKLLIYAASSTQSGVPSRFSGSGSGTDFTLTISSLQPEDFATYYCQQAFHVPITFGGGTKVEIK
notes: Fab fragment; also called Ab26
B5: ADI-11828 Fab (Fab, V domains shown)
VH: EVQLVESGGGLVQPGGSLRLSCAASGFTFSSYWMSWVRQAPGKGLEWVANINQDGSEVYYVDSVKGRFTISRDNAKNSLYLQMNSLRAEDTAVYYCARDVGPGIAYQGHFDYWGQGTLVTVSS
VL: B4 VL with N31Y, T54R, A91V, F92Y, H93D, V94T, I96L
notes: Fab fragment; also called Ab27
B6: ADI-11825 Fab (Fab, V domains shown)
VH: B4 VH with P30G, V58E
VL: B4 VL with S53N, T54L, Q55H
notes: Fab fragment; also called Ab25
B7: ADI-10160 Fab (Fab, V domains shown)
VH: B4 VH with P30S, G31S, V58K
VL: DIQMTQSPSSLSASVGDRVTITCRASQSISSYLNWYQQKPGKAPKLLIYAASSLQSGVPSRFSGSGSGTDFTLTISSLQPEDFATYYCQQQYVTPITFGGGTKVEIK
notes: Fab fragment; also called Ab15
B8: A40.I07 (bispecific antibody)
NKG2D-binding VH: QVQLQQWGAGLLKPSETLSLTCAVYGGSFSGYYWSWIRQPPGKGLEWIGEIDHSGSTNYNPSLKSRVTISVDTSKNQFSLKLSSVTAADTAVYYCARARGPWSFDPWGQGTLVTVSS
NKG2D-binding VL: DIQMTQSPSTLSASVGDRVTITCRASQSIGSWLAWYQQKPGKAPKLLIYKASSLESGVPSRFSGSGSGTEFTLTISSLQPDDFATYYCQQYHSFYTFGGGTKVEIK
CD33-binding VH: EVQLVESGGGLVQPGGSLRLSCAASGFTFGSYWMSWVRQAPGKGLEWVATIKQDGSEKSYVDSVKGRFTISRDNAKNSLYLQMNSLRAEDTAVYYCARPLNAGELDVWGQGTMVTVSS
CD33-binding VL: DIQMTQSPSTLSASVGDRVTITCRASQSISSWLAWYQQKPGKAPKLLIYEASSLESGVPSRFSGSGSGTEFTLTISSLQPDDFATYYCQQSQSYPPITFGGGTKVEIK
B9: A40.I35 (bispecific antibody)
NKG2D-binding VH: B8 NKG2D-binding VH
NKG2D-binding VL: B8 NKG2D-binding VL
CD33-binding VH: QLQLQESGPGLVKPSETLSLTCTVSGGSISSTDYYWGWIRQPPGKGLEWIGSIGYSGTYYNPSLKSRVTISVDTSKNQFSLKLSSVTAADTAVYYCARETAHDVHGMDVWGQGTTVTVSS
CD33-binding VL: EIVLTQSPATLSLSPGERATLSCRASHSVYSYLAWYQQKPGQAPRLLIYDASNRATGIPARFSGSGSGTDFTLTISSLEPEDFAVYYCQQYDNLPTFGGGTKVEIK
B10: F47.I07 (bispecific antibody)
NKG2D-binding VH: B8 NKG2D-binding VH
NKG2D-binding VL: B8 NKG2D-binding VL with G30S, H92D, S93T, Y95I
CD33-binding VH: B8 CD33-binding VH
CD33-binding VL: B8 CD33-binding VL
B11: F47.I35 (bispecific antibody)
NKG2D-binding VH: B8 NKG2D-binding VH
NKG2D-binding VL: B8 NKG2D-binding VL with G30S, H92D, S93T, Y95I
CD33-binding VH: B9 CD33-binding VH
CD33-binding VL: B9 CD33-binding VL

These binders were tested against T1, human CD33 extracellular domain (human, UniProt P20138 18-259) (assay: SPR, Fab captured, 37C;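 on result: surface plasmon resonance with Fabs captured on anti-Fab surface, soluble monomeric CD33 as analyte at several concentrations, double-referenced 1:1 model fit, KD as koff/kon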).
T1 construct: soluble monomeric ECD; also called human CD33 ECD; hCD33
Experimental: (§1) Kinetics and affinity of a series of Fab fragments of anti-CD33 antibodies with different CD33 variants (human CD33 ECD, cyno CD33 ECD, V-domain of human CD33, C-domain or human CD33 and selected CD33 SNPs) were assessed by surface plasmon resonance using Biacore 8K instrument (GE Healthcare). Anti-Fab antibody was immobilized on a CMS chip using standard amine coupling chemistry. CD33 FABs were captured on the anti-Fab chip at a density of ˜100 RU. Solutions containing different concentrations of soluble monomeric CD33 or its domains were injected over the captured FABs and control surfaces at 30 μl/min at 37° C. Surfaces were regenerated between cycles by quick injection of 10 mM glycine, pH 1.8. To obtain kinetic rate constants double-referenced data were fit to a 1:1 interaction model using Biacore 8K Evaluation software (GE Healthcare). The equilibrium binding constant KD was determined by the ratio of binding rate constants kd/kₐ.
(§2) Affinity of 29 Fab fragments binding to human and cyno CD33 ECD were assayed by Biacore analysis.

Kd [nM]	koff [s⁻¹]	kon [M⁻¹ s⁻¹]	Binder
20.6	0.0118	574000	B1
18.6	0.0162	874000	B2
31.5	0.0101	319000	B3
2.63	0.00463	1.76e+06	B4
2.67	0.00351	1.32e+06	B5
1.78	0.0038	2.13e+06	B6
42.2	0.0269	637000	B7

The binders below were run against T2, C domain of human CD33 (human, UniProt P20138 140-259, limits assumed) (assay: SPR, Fab captured, 37C).
T2 construct: recombinant C domain
Experimental: as §1
The binding interface between the Fab fragment of each CD33 antibody to CD33 was mapped.

binding result	Binder
no binding	B1
no binding	B2
no binding	B3
no binding	B4
no binding	B5
no binding	B6
no binding	B7

What follows are binders tested against T3, human CD33 expressed on cells (human, UniProt P20138 18-364) (assay: flow cytometry on Molm-13 cells, fluorophore-conjugated anti-human IgG secondary antibody, MFI as fold over background (FOB)).
T3 construct: endogenous CD33 of human AML cell lines and blood monocytes; also called cell-expressed CD33 (Molm-13, Mv4-11, monocytes)
Experimental: Binding of the TriNKET was detected using a fluorophore conjugated anti-human IgG secondary antibody. Cells were analyzed by flow cytometry, binding MFI to cell expressed CD33 was normalized to secondary antibody controls to obtain fold over background values.

binding result	Binder
binds	B8
binds	B9
binds	B10
binds	B11

Each binder was assayed against T4, V domain of human CD33 (human, UniProt P20138 18-139, limits assumed) (assay: SPR, Fab captured, 37C).
T4 construct: recombinant, fully glycosylated V domain; also called Human CD33 V domain

Kd [nM]	koff [s⁻¹]	kon [M⁻¹ s⁻¹]	Binder
95.8	0.124	1.29e+06	B1
44.6	0.41	9.19e+06	B2
286	0.37	1.29e+06	B3
4.38	0.0225	5.12e+06	B4
6.3	0.0213	3.37e+06	B5
3.95	0.0195	4.93e+06	B6
206	0.327	1.59e+06	B7

These binders were tested against T5, deglycosylated V domain of human CD33 (human, UniProt P20138 18-139, limits assumed, N-glycans removed by PNGase) (assay: SPR, Fab captured, 37C).
T5 construct: V domain deglycosylated by PNGase before testing; also called deglycosylated V CD33

Kd [nM]	koff [s⁻¹]	kon [M⁻¹ s⁻¹]	Binder
85.6	0.196	2.29e+06	B1
70.3	0.116	1.65e+06	B2
143	0.116	811000	B3
3.69	0.0198	5.37e+06	B4
4.87	0.0189	3.59e+06	B5
3.11	0.018	5.78e+06	B6
133	0.225	1.7e+06	B7

Each binder was assayed against T6, cyno CD33 extracellular domain (Cynomolgus/Rhesus (cyno)) (assay: SPR, Fab captured, 37C;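 further: surface plasmon resonance with Fabs captured on anti-Fab surface, soluble monomeric CD33 as analyte at several concentrations, double-referenced 1:1 model fit, KD as koff/kon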).
T6 construct: soluble monomeric ECD; also called cyno CD33 ECD
Experimental: as §1, §2

binding result	Kd [nM]	koff [s⁻¹]	kon [M⁻¹ s⁻¹]	Binder
no binding (tested: 100 nM)				B1
no binding (tested: 100 nM)				B2
no binding (tested: 100 nM)				B3
no binding (tested: 100 nM)				B4
	53.5	0.0548	1.03e+06	B5
no binding (tested: 100 nM)				B6
no binding (tested: 100 nM)				B7

Molecular target: T1, human CD33 extracellular domain
Assay: SPR, Fab captured, 37C;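 on result: surface plasmon resonance with Fabs captured on anti-Fab surface, soluble monomeric CD33 as analyte at several concentrations, double-referenced 1:1 model fit, KD as koff/kon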
Remark: another data set of the same source
Experimental: as §1, §2

Kd [nM]	koff [s⁻¹]	kon [M⁻¹ s⁻¹]	Binder
20.6	0.0118	574000	B1
18.6	0.0162	874000	B2
31.5	0.0101	319000	B3
2.63	0.00463	1.76e+06	B4
2.67	0.00351	1.32e+06	B5
1.78	0.0038	2.13e+06	B6
42.2	0.0269	637000	B7

Molecular target: T1, human CD33 extracellular domain
Assay: SPR, Fab captured, 37C;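 on result: surface plasmon resonance with Fabs captured on anti-Fab surface, soluble monomeric CD33 as analyte at several concentrations, double-referenced 1:1 model fit, KD as koff/kon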
Remark: another data set of the same source
Experimental: as §1

Kd [nM]	koff [s⁻¹]	kon [M⁻¹ s⁻¹]	Binder
20.6	0.0118	574000	B1
18.6	0.0162	874000	B2
31.5	0.0101	319000	B3
2.63	0.00463	1.76e+06	B4
2.67	0.00351	1.32e+06	B5
1.78	0.0038	2.13e+06	B6
42.2	0.0269	637000	B7

Molecular target: T4, V domain of human CD33
Assay: SPR, Fab captured, 37C
Remark: another data set of the same source
Experimental: as §1

Kd [nM]	koff [s⁻¹]	kon [M⁻¹ s⁻¹]	Binder
95.8	0.124	1.29e+06	B1
44.6	0.41	9.19e+06	B2
286	0.37	1.29e+06	B3
4.38	0.0225	5.12e+06	B4
6.3	0.0213	3.37e+06	B5
3.95	0.0195	4.93e+06	B6
206	0.327	1.59e+06	B7

Molecular target: T1, human CD33 extracellular domain
Assay: SPR, Fab captured, 37C
Remark: another data set of the same source
Experimental: as §1, §2

Kd [nM]	koff [s⁻¹]	Binder
20.6	0.0118	B1
18.6	0.0162	B2
31.5	0.0101	B3
2.63	0.00463	B4
2.67	0.00351	B5
1.78	0.0038	B6
42.2	0.0269	B7
